In article PMC6543031 one finds stoichiometry N data, which are given here for 1 substance.

The target of the experiment is N-tagged HA-SadB protein (Pseudomonas fluorescens F113). The experiment in a line: SEC; gel filtration of HA-SadB, in the presence or absence of c-di-GMP; data not shown. (SEC sorts molecules by how far they enter the pores of the column.)

In turn, “N-tagged HA-SadB protein (natural protein)” came in with a stoichiometry N of 2.

Usually stoichiometry N stands for the number of molecules, sites or subunits per partner or assembly.
